The target in one data set is c-Src SH2. Kind of data set: SH2 binding enrichment of the phosphorylated peptide, bacterial display (enrichment ratio); higher = better substrate or ligand; peptides without Tyr show the background.
In the next data set the target is Grb2 SH2 (UniProt P62993). The description is as above.
The target of another data set is SHP2-C SH2. The description is as above.
For a further data set, the system named is c-Abl (mouse). Kind of data set: phosphorylation enrichment, bacterial display (enrichment ratio); higher = better substrate or ligand; peptides without Tyr show the background.
In the next data set the target is Fes (UniProt P07332). The description is as above.
Another data set has as its system c-Src. The data set is described as above.
The next data set concerns Fer (mouse). Described as above.
The test system of the next data set is AncSZ. Described as above.
The target in another data set is Fyn (UniProt P06241). Described as above.
In another data set the target is EPHB1 (UniProt P54762). The description is as above.
A further data set has as its target EPHB2 (UniProt P29323). The data set is described as above.
For a further data set, the target named is FGFR3 (UniProt P22607). Described as above.
The target of the next data set is Jak2 (UniProt O60674). Described as above.
For the next data set, the target named is FGFR1 (UniProt P11362). Described as above.
In a further data set the target is MERTK (UniProt Q12866). The description is as above.
Another data set deals with Hck (UniProt P08631). Described as above.
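For SH2 binding enrichment of the phosphorylated peptide, bacterial display in this document: peptide library displayed on the E. coli surface as eCPX fusions, selected cells deep-sequenced, score is each peptide's frequency after selection divided by its frequency in the input.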
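For phosphorylation enrichment, bacterial display in this document: 11-residue human phosphosite peptides and single-mutation variants displayed on the E. coli surface, counted by deep sequencing, each peptide's frequency after selection divided by its frequency in the unselected input library; frequency after pTyr selection over input frequency; kinase dosed for 20-30% of maximal phosphorylation in three min.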

EPHB2, sequence (P29323 whole entry, looked up): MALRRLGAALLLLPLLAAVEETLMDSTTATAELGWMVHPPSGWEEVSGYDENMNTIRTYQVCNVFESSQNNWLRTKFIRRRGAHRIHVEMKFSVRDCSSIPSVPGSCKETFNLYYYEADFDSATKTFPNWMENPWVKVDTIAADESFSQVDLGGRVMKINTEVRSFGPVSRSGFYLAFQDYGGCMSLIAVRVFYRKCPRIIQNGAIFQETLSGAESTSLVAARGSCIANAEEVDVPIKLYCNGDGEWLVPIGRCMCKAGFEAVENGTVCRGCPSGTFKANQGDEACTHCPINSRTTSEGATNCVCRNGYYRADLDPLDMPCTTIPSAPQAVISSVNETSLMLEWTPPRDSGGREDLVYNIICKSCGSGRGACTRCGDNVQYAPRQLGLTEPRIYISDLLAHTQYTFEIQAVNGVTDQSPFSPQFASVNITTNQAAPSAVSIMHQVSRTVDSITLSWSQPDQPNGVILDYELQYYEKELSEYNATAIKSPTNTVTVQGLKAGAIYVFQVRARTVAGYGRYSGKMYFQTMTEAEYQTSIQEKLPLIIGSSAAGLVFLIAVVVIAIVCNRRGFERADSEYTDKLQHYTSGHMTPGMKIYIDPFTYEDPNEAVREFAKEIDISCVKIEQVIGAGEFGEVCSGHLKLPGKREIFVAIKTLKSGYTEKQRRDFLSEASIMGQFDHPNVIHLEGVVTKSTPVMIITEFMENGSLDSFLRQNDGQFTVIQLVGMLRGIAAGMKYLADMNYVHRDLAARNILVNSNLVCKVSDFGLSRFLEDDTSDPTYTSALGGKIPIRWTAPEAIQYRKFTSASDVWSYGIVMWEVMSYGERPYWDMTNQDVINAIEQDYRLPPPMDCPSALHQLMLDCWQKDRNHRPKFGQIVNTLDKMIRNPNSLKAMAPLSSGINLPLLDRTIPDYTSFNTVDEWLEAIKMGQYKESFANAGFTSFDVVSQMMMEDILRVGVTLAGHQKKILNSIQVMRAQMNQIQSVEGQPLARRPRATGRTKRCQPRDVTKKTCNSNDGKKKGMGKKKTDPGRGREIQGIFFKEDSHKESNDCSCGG
EPHB1, sequence (P54762 whole entry, looked up): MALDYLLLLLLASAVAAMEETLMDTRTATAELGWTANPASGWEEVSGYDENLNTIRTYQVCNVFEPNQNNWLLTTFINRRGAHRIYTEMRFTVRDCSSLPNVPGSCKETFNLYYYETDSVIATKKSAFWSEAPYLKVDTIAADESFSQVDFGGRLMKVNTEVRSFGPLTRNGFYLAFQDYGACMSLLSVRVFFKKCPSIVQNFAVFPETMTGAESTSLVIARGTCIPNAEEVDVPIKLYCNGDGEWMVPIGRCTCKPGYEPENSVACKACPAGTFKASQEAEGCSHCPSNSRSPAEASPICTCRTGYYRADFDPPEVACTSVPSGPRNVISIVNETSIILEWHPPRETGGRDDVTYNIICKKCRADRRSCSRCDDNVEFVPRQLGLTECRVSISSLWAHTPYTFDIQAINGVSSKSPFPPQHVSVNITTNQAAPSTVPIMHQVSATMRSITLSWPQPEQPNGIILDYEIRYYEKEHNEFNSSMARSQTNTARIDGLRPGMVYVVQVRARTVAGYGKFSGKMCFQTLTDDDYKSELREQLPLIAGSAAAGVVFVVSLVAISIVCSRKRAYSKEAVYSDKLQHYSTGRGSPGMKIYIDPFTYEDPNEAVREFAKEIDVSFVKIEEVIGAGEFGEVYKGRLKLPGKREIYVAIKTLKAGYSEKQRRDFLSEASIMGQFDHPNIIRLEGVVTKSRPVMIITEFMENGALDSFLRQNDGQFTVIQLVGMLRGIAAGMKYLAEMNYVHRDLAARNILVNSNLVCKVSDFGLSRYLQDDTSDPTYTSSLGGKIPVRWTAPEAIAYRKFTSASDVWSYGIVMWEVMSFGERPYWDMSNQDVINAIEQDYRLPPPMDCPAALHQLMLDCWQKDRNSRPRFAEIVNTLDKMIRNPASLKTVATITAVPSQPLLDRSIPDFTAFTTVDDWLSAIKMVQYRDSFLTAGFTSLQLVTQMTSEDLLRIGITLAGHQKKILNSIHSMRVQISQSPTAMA
Hck, sequence (P08631 whole entry, looked up, the tested form may be a part): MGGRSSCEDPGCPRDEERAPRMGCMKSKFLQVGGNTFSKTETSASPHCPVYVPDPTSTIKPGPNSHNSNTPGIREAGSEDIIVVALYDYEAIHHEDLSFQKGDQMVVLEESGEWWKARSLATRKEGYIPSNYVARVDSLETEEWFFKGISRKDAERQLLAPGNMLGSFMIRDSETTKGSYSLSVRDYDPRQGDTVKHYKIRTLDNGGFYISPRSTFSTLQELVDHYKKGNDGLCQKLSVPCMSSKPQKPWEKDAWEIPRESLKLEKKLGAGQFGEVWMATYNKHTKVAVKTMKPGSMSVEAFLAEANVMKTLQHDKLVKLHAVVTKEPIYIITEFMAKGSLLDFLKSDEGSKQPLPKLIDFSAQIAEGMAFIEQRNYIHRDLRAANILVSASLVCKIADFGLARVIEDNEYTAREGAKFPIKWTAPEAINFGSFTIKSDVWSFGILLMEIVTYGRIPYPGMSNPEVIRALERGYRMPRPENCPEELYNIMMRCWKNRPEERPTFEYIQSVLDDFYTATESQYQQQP
MERTK, sequence (Q12866 whole entry, looked up): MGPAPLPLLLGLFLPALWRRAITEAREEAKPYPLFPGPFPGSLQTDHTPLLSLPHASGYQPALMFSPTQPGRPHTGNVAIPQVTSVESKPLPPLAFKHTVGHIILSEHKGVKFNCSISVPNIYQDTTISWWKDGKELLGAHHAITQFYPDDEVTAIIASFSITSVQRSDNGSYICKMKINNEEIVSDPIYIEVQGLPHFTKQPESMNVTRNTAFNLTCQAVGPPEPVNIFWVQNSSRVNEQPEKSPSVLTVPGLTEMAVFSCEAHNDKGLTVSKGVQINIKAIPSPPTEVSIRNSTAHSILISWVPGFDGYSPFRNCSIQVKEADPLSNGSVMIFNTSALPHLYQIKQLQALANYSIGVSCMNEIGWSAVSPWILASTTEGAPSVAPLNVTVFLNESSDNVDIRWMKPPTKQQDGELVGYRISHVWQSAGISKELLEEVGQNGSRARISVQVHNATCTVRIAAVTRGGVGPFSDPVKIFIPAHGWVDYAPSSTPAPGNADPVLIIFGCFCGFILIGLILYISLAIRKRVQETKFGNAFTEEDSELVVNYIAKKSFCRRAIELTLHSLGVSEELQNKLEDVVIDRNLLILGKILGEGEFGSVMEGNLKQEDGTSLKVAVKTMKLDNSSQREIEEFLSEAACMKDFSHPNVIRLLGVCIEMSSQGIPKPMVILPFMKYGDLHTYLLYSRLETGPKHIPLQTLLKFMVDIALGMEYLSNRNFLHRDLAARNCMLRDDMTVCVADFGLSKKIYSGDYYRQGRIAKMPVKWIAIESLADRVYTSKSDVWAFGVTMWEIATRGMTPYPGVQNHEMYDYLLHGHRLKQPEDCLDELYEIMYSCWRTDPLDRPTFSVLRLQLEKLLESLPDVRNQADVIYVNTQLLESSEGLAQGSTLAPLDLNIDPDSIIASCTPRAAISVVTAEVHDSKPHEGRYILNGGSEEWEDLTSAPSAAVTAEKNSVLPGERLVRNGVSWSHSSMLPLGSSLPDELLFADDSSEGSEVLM
FGFR1, sequence (P11362 whole entry, looked up): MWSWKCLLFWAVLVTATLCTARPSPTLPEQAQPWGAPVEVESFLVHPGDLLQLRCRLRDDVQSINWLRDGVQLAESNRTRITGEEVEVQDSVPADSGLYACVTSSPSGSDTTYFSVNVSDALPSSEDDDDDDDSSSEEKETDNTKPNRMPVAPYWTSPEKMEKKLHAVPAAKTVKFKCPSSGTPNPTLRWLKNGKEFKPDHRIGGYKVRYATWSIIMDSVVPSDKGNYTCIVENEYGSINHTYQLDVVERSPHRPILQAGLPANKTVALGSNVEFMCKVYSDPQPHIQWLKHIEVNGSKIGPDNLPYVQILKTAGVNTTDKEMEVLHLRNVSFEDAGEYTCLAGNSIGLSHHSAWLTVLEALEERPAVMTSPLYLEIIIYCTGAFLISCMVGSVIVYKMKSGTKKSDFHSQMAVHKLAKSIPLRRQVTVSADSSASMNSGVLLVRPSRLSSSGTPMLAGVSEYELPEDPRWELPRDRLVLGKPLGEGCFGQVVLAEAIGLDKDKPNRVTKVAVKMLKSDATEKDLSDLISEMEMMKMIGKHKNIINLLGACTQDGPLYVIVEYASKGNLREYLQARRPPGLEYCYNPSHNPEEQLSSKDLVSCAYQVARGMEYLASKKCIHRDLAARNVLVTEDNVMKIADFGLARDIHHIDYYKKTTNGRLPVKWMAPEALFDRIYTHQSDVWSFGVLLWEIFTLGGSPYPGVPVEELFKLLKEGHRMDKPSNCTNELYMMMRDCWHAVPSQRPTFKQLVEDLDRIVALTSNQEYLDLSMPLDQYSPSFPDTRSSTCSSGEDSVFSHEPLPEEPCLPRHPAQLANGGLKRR
Fyn, sequence (P06241 whole entry, looked up): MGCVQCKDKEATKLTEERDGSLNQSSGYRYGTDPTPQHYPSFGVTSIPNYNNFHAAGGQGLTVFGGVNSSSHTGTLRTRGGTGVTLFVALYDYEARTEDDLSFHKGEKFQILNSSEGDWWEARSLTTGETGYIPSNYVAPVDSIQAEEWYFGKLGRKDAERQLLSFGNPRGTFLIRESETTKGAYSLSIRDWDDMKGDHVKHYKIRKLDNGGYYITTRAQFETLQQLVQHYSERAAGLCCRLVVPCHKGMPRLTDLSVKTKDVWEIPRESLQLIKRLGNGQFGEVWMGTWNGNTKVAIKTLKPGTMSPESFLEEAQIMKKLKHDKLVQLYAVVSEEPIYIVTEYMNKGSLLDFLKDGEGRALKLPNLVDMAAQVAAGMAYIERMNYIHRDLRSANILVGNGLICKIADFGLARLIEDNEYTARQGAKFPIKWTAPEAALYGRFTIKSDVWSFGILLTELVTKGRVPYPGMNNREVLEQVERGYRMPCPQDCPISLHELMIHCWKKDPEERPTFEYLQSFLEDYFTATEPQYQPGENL

As to HLWRIYFDITD [MMP27_Y307_YF], the SH2 binding enrichment with c-Src SH2 is 0.491; in the data set with Grb2 SH2 it was 0.877; in the data set with SHP2-C SH2, 0.695. In addition, the phosphorylation enrichment in the data set with c-Abl (mouse) was 1.27; in the data set with Fes, 1.81; in the data set with c-Src it was 0.462; with Fer (mouse), 0.531; in the data set on AncSZ, 1.39; with Fyn it was 0.532. Further, the phosphorylation enrichment is 1.15 in the data set with EPHB1; 0.771 in the data set with EPHB2; 1.19 with FGFR3; 1.52 in the data set with Jak2; 0.973 in the data set with FGFR1; 0.366 with MERTK. Moreover, the phosphorylation enrichment in the data set with Hck was determined as 0.739.
In the case of HNLDFYKKTTN [FGFR3_Y648_YF], the SH2 binding enrichment in the data set with c-Src SH2 is 0.5; in the data set with Grb2 SH2 it was 1.02; with SHP2-C SH2, 0.602. The phosphorylation enrichment with c-Abl (mouse) stood at 3.49; with Fes, 3.91; in the data set with c-Src, 2.23; with Fer (mouse), 2.46; with AncSZ it was 3.51; in the data set with Fyn it was 0.916. For the same sequence, the phosphorylation enrichment with EPHB1 came out at 1.76; with EPHB2 it was 2.13; with FGFR3 it was 1.68; with Jak2 it was 5.47; with FGFR1, 1.28; with MERTK, 1.95. Moreover, the phosphorylation enrichment with Hck amounted to 1.15.
For HNVPIYEGFAL [ACTA1_Y168_YF], the SH2 binding enrichment with c-Src SH2 was found to be 0.431; with Grb2 SH2, 0.849; with SHP2-C SH2 it was 0.794. Further, the phosphorylation enrichment was found to be 23.5 with c-Abl (mouse); 7.74 in the data set with Fes; 10.6 in the data set on c-Src; 22.7 in the data set with Fer (mouse); 1.59 in the data set on AncSZ; 15.1 in the data set with Fyn. The phosphorylation enrichment with EPHB1 worked out at 22.5; with EPHB2 it was 28.1; in the data set with FGFR3, 0.785; with Jak2, 0.894; with FGFR1, 0.649; with MERTK, 12.4. For the same sequence, in the data set with Hck, the phosphorylation enrichment is 14.1.
Take HPFHVYSQPGM [BAG3_Y114_P115S]: the SH2 binding enrichment with c-Src SH2 is 18.1; in the data set with Grb2 SH2, 1.39; with SHP2-C SH2, 0.806. The phosphorylation enrichment in the data set with c-Abl (mouse) stood at 0.847; with Fes it was 1.39; in the data set with c-Src it was 0.937; with Fer (mouse) it was 0.719; in the data set on AncSZ, 1.78; with Fyn it was 1.24. In addition, the phosphorylation enrichment was 0.649 with EPHB1; 0.945 with EPHB2; 0.908 in the data set with FGFR3; 0.984 with Jak2; 0.753 with FGFR1; 0.804 with MERTK. In the data set with Hck, the phosphorylation enrichment stood at 1.74.
Turning to HRFAAYFQQGD [GPI_Y351], the SH2 binding enrichment with c-Src SH2 was found to be 0.662; with Grb2 SH2, 0.97; in the data set with SHP2-C SH2, 0.77. In addition, the phosphorylation enrichment was 0.979 in the data set with c-Abl (mouse); 1.79 in the data set with Fes; 0.609 in the data set on c-Src; 0.496 with Fer (mouse); 1.17 in the data set on AncSZ; 0.633 with Fyn. The phosphorylation enrichment was 0.88 in the data set with EPHB1; 0.759 with EPHB2; 0.897 in the data set with FGFR3; 1.59 in the data set with Jak2; 0.962 with FGFR1; 0.643 with MERTK. Besides, in the data set with Hck, the phosphorylation enrichment worked out at 0.501.
As to HRGYLYLAIEY [TEK_Y899], the SH2 binding enrichment with c-Src SH2 turned out to be 0.695; with Grb2 SH2, 1.24; in the data set with SHP2-C SH2, 1.11. The phosphorylation enrichment in the data set on c-Abl (mouse) is 1.24; with Fes it was 1.22; in the data set with c-Src, 0.375; in the data set on Fer (mouse), 0.432; with AncSZ it was 1.23; in the data set with Fyn it was 0.485. Moreover, the phosphorylation enrichment with EPHB1 stood at 0.558; with EPHB2, 0.485; with FGFR3 it was 0.602; with Jak2 it was 1.03; with FGFR1, 0.521; in the data set with MERTK it was 0.486. Further, the phosphorylation enrichment with Hck was 0.466.
On to HYVYYYSYLLK [PTEN_Y178_R173H], for which the SH2 binding enrichment with c-Src SH2 was determined as 0.425; with Grb2 SH2, 0.865; in the data set with SHP2-C SH2 it was 0.702. For the same sequence, the phosphorylation enrichment in the data set on c-Abl (mouse) was 2.31; with Fes it was 2.12; in the data set with c-Src it was 3.08; with Fer (mouse) it was 0.888; in the data set on AncSZ it was 2.09; with Fyn, 1.29. Besides, the phosphorylation enrichment in the data set with EPHB1 was determined as 2.74; with EPHB2, 1.37; in the data set with FGFR3, 5.92; with Jak2, 2.42; with FGFR1, 6.85; in the data set with MERTK, 5.74. The phosphorylation enrichment in the data set with Hck was 3.19.
Regarding IAINKYEVSLI [MYO7A_Y2136_G2137E], the SH2 binding enrichment with c-Src SH2 worked out at 0.59; in the data set with Grb2 SH2 it was 0.805; with SHP2-C SH2, 0.981. The phosphorylation enrichment in the data set on c-Abl (mouse) is 0.598; with Fes it was 0.99; in the data set on c-Src, 0.451; in the data set on Fer (mouse), 0.486; in the data set with AncSZ, 0.89; with Fyn, 0.514. Further, the phosphorylation enrichment was 0.505 with EPHB1; 0.562 with EPHB2; 0.635 with FGFR3; 0.851 in the data set with Jak2; 0.445 in the data set with FGFR1; 0.371 with MERTK. Also, the phosphorylation enrichment with Hck came to 0.493.
ICANKYMVESC [RPL10_Y75_K78E]: the SH2 binding enrichment turned out to be 0.675 with c-Src SH2, 0.913 in the data set with Grb2 SH2 and 0.861 in the data set with SHP2-C SH2. Also, the phosphorylation enrichment with c-Abl (mouse) turned out to be 0.657; with Fes it was 1.14; with c-Src, 0.53; in the data set with Fer (mouse), 0.455; with AncSZ, 0.982; in the data set with Fyn, 0.47. Besides, the phosphorylation enrichment in the data set with EPHB1 came out at 0.482; with EPHB2, 0.502; with FGFR3, 0.659; in the data set with Jak2, 0.982; with FGFR1 it was 0.596; in the data set with MERTK, 0.432. Also, the phosphorylation enrichment with Hck turned out to be 0.574.

The values above are taken from the supplement of paper PMC10065799, “High-throughput profiling of sequence recognition by tyrosine kinases and SH2 domains using bacterial peptide display” (eLife, 2023).
